Results as given in patent publication US20140037642A1, “METHODS AND COMPOSITIONS RELATING TO INHIBITION OF IGF-1R” (AMGEN INC., priority 2011, published 2014).

Key:
[1] = target: hu IGF-1R(ECD)-C3-muIgG1Fc (human; mouse); experiment: ORIGEN competition with 2 nM Ru-IGF-2 for IGF-1R(ECD)-C3-muFc on beads
[2] = target: hu IGF-1R(ECD)-C3-muIgG1Fc (human; mouse); experiment: ORIGEN competition with 1 nM Ru-IGF-1 for IGF-1R(ECD)-C3-muFc on beads

Substance	Ki [1] [µM]	Max (%), maximum level of inhibition at 1 µM antibody [1] [%]	Ki [2] [µM]	Max (%), maximum level of inhibition at 1 µM antibody [2] [%]
murine anti-IGF-1R antibody 1H7 (Santa Cruz Biotechnology)	0.0131	99	0.016	89
murine anti-IGF-1R antibody αIR3 (Calbiochem)	–	–	0.0053	91
